The source of these data is patent US20260097076A1 (ELPIS BIOPHARMACEUTICALS, published 2026).

Assay [1] deals with T1, Human BCMA-Fc (human, UniProt Q02223 1-54).
T1 construct: also called human BCMA-Fc protein; recombinant BCMA-Fc fusion protein; not shown: Fc part (captured by anti-human Fc antibody or Protein A)
T1 sequence (looked up): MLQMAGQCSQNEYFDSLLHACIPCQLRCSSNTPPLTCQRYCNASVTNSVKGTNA
The assay can be described thus: SPR, Biacore T200, BCMA-Fc captured on Protein A chip, scFv as analyte. The protocol:
Kinetic analysis of anti-BCMA scFvs have been assessed by SPR technology with Biacore T200. The assay was run with Biacore T200 control software version 2.0. Protein A sensor chip was used to capture Fc fusion protein in the assay. For each cycle, 1 μg/mL of human BCMA-Fc protein was captured for 60 seconds at flow rate of 10 ul/min on flow cell 2 in 1×HBSP buffer on Protein A sensor chip. 2-fold serial diluted HIS tag purified anti-BCMA scFv was injected onto both reference flow cell 1 and BCMA-Fc captured flow cell 2 for 150 seconds at flow rate of 30 ul/min followed by wash for 300 seconds. The flow cells were then regenerated with Glycine pH2 buffer (GE) for 30 seconds at flow rate of 30 ul/mins. 8 concentration points from 300-0 nM was assayed per anti-BCMA scFv in a 96 well plate. The kinetics of scFvs binding to BCMA protein was analyzed with Biacore T200 evaluation software version 3.0. The specific binding response unit was derived from subtraction of binding to reference flow cell 1 from BCMA captured flow cell 2.
Background: In SPR one partner is held on a chip, and binding of the other changes the refractive index at the surface.

The target of assay [2] is T1, Human BCMA-Fc. Briefly: ELISA, human BCMA-Fc captured by anti-human Fc, scFv detected with anti-Flag HRP. Here is the method:
An ELISA assay was developed to determine the EC₅₀ of anti-BCMA antibodies. Briefly, 384 well plate was immobilized with anti-human Fc antibody at final concentration of 2 μg/mL in 1×PBS in total volume of 25 uL per well. The plate was incubated overnight at 4° C. followed by blocking with 80 μL of superblock per well for 1 hour. Human BCMA-Fc was captured through immobilized anti-hFc antibody. Purified anti-BCMA scFvs were 2-fold serial titrated from 200 nM. 25 μL of diluted scFv was added to human BCMA immobilized wells and incubated for 1 hour with shaking. The BCMA binding was detected by adding 25 μL of anti-Flag HRP diluted at 1:5000 in 1×PBST. In between each step, the plate was washed 3 times with 1×PBST in a plate washer. The plate was then developed with 20 μL of TMB substrate for 5 mins and stopped by adding 20 μL of 2 N sulfuric acid. The plate was read at OD450 nm Biotek plate reader and then plotted in Prism 8.1 software.
(In general: ELISA stands for enzyme-linked immunosorbent assay.)

Assay [3] has as its target T2, B Cell Maturation Antigen (BCMA) on cells (UniProt Q02223 1-184, limits assumed).
T2 construct: whole, on cells; One molecule is used for the recombinant (CHOK1) and the endogenous (myeloma lines) cell-surface BCMA; also called tumor necrosis factor receptor superfamily member 17 (TNFRSF17); CD269
T2 sequence (looked up): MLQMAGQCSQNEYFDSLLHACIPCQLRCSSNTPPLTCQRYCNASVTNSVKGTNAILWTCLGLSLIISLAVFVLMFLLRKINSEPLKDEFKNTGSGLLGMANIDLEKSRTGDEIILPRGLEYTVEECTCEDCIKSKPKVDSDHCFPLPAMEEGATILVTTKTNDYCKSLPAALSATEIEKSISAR
The assay can be described thus: flow cytometry, serial diluted scFv on BCMA/CHOK1 cells. Here is the method: Cells were spun down at 1200 rpm for 6 minutes at 4° C. to remove primary antibodies. Cells were then washed once with 200 μL of full medium per well. Samples were detected with premixed anti-His Biotin Streptavidin Alexa fluor 647 by adding 100 μL of diluted secondary antibody and incubated at 4° C. for 30 minutes in the dark. Samples were spun down at 1200 rpm for 5 minutes at 4° C. and washed twice with 200 μL of 1×PBS per well. Reconstituted samples in 200 μL of 1×PBS and read on Attune NxT cytometer. Analysis was done by Attune NxT software plotting the overlaying the histogram of anti-BCMA scFvs binding onto both negative and target cell lines. […] The BCMA cell binding affinity for exemplary anti-BCMA antibodies (in scFv format) was also generated with serial diluted scFvs as described above.
Background: In flow cytometry, cells or beads pass a laser one at a time.

Assay [4] addresses T2, B Cell Maturation Antigen (BCMA) on …. Briefly: flow cytometry on H929 multiple myeloma cells (endogenous BCMA).
The target is the same in assay [5]. Briefly: flow cytometry on MM1R multiple myeloma cells (endogenous BCMA).

As a reminder, the Kd is the constant that tells how readily two partners part at equilibrium. A low value points to higher affinity. By koff is commonly meant the first-order rate constant of dissociation. The term kon denotes a measure of how fast the partners come together. Read a low kon as slow association. For orientation: EC50 means the concentration needed to bring the measured effect to its halfway point. Low values mean greater potency, high ones weaker potency.

B1: BC-02 (anti-BCMA antibody in scFv format) (scFv)
scFv: QVQLVQSGGGVVQPGGSLRLSCAASGFTFSSYGMHWVRQAPGKVLEWVAFIRYDGSNKYYADSVKGRFTISRDNSKNTLYLQMNSLRAEDTAVYYCAKDWDYYDSSGYYPDALGIWGQGTMVTVSSGGGGSGGGGSGGGGSEIVLTQSPSSLSASVGDRVTITCQASQDISNYLNWYQQKPGKAPKLLIYDASNLETGVPSRFSGSGSGTDFTFTISSLQPEDIATYYCQQYDNLPFTFGPGTKVDIK
notes: Human scFv from mRNA display, VH-(G4S)3-VL, expressed in E. coli periplasm, His-purified; not shown: C-terminal flag and 6xHis tag
Take B1: in assay [1], binding was characterised by a dissociation constant (Kd) of 12.9 nM, the koff amounted to 0.00118 s⁻¹ and the on-rate constant (kon) was 91600 M⁻¹ s⁻¹. This molecule also had a 50% effective concentration (EC50) in assay [2] of 1.92 nM. The same molecule came in with an EC50 in assay [3] of 84 nM.

B2: BC-01 (anti-BCMA antibody in scFv format) (scFv)
scFv: EVQLVQSGGGVVQPGGSLRLSCAASGFTFSSYGMHWVRQAPGKGLEWVAFIRYDGSNKYYADSVKGRFTISRDNSKNTLYLQMNSLRAEDTAVYYCAKDLWDGIVGAPAGYWGQGTLVTVSSGGGGSGGGGSGGGGSDVVMTQSPSSLSASVGDRVTITCQASQDISNYLNWYQQKPGKAPKLLIYDASNLETGVPSRFSGSGSGTDFTFTISSLQPEDIATYYCQQYDNLPLTFGGGTKVEIK
notes: as for B1
In assay [1], B2 displayed a Kd of 3 nM, a dissociation rate constant (koff) of 0.000431 s⁻¹ and a kon of 144000 M⁻¹ s⁻¹. This molecule also had an EC50 in assay [2] of 0.938 nM. In addition, the EC50 in assay [3] was found to be 18.9 nM.

B3: BC-05 (anti-BCMA antibody in scFv format) (scFv)
scFv: QMQLVQSGGGVVQPGGSLRLSCAASGFTFSSYGMHWVRQAPGKGLEWVAFIRYDGSNKYYADSVKGRFTISRDNSKNTLYLQMNSLRAEDTAVYYCAKDWEDPLYYYDTPFWGQGTLVTVSSGGGGSGGGGSGGGGSVIWMTQSPSSVSASVGDIITITCQASQDINNYLNWYQLKPGKAPKLLIYDASNVETGVPSRFSGSGSGTDFTFTISSLQPEDTATYYCQQYDKLPYTFGQGTKLEIK
notes: as for B1
In assay [1], B3 had a dissociation constant (Kd) of 10.4 nM, a koff of 0.000646 s⁻¹ and an association rate constant (kon) of 62400 M⁻¹ s⁻¹. Besides, the EC50 in assay [2] was found to be 0.536 nM. Besides, a half-maximal response in assay [3] (EC50) required 4.91 nM.

B4: BC-08 (anti-BCMA antibody in scFv format) (scFv)
scFv: QVQLVQSGGGVVQPGRSLRLSCAASGFTFSSYAMHWVRQAPGKGLEWVAVISYDGSNKYYADSVKGRFTISRDNAENSVYLQMNSLRAEDTAVYYCARDEHQVVPNYRFDFWGQGSQVTVSSGGGGSGGGGSGGGGSQLVLTQPPSASGTPGQRVTISCSGSGSNIGSNDVSWYQQIPGTASKLLIYWNDQRPSGVPDRFSGSKSGTSASLAISGLQSEDEADYYCAAWDDSLNGWVFGGGTKLTVL
notes: as for B1
In assay [1], B4 gave a dissociation constant (Kd) of 0.653 nM, a koff of 0.00116 s⁻¹ and a kon of 1.78e+06 M⁻¹ s⁻¹. In assay [2], this molecule had a concentration for a half-maximal effect (EC50) of 0.299 nM. For the same molecule, the EC50 in assay [3] was found to be 1 nM.

B5: BC-06 (anti-BCMA antibody in scFv format) (scFv)
scFv: EVQLVESGGGLVQPGRSLRLSCAASGFTFDDYAMHWVRQAPGKGLEWVSGISWNSGSIGYADSVKGRFTISRDNAKNSLYLQMNSLRAEDTALYYCAKVQPPGAFDIWGQGTMVTVSSGGGGSGGGGSGGGGSDIQLTQSPSFLSASVGDRVSITCRSTQGISSYLGWYQQKPGKAPKLLIYATSTLQSGVPSRFSGSGSGTEFTLTISSLQPEDFATYYCQQLYSFGQGTKLEIK
notes: Human scFv from mRNA display, VH-(G4S)3-VL, expressed in E. coli periplasm, His-purified; also called clone BC-06; not shown: C-terminal flag and 6xHis tag
Regarding B5, the EC50 in assay [4] was determined as 2.85 nM; in assay [5] it was 0.74 nM; in assay [2], 0.62 nM; in assay [3], 1.9 nM. The molecule also registered a Kd in assay [1] of 7.87 nM. Moreover, the off-rate constant (koff) in assay [1] worked out at 0.00251 s⁻¹. This molecule yielded a kon in assay [1] of 319000 M⁻¹ s⁻¹.

B6: BC-07 (anti-BCMA antibody in scFv format) (scFv)
scFv: EVQLVESGGGLVQPGRSLRLSCAASGFTFDDYAMHWVRQAPGKGLEWVSGISWNSGSIGYADSVKGRFTISRDNAKNSLYLQMNSLRAEDTALYYCAKVQSPGAFDIWGQGTMVTVSSGGGGSGGGGSGGGGSDIQLTQSPSFLSASVGDRVSITCRSTQGISSYLGWYQQKPGKAPKLLIYATSTLQSGVPSRFSGSGSGTEFTLTISSLQPEDFATYYCQQLYSFGQGTKLEIK
notes: as for B1
B6: in assay [1], the affinity, expressed as Kd, was 26.2 nM; the off-rate constant (koff) is 0.00592 s⁻¹; the on-rate (kon) was determined as 226000 M⁻¹ s⁻¹. It took 0.802 nM to reach a half-maximal effect in assay [2] (EC50). The EC50 in assay [3] is 13.2 nM.

B7: BC-03 (anti-BCMA antibody in scFv format) (scFv)
scFv: QMQLVQSGGGVVQPGGSLRLSCAASGFTFSSYGMHWVRQAPGKGLEWVAFIRYDGSDKYYADSVKGRFTISRDNSKNTLYLQMNSLRAEDTAVYYCAKDLTTITPGYWGQGTLVTVSSGGGGSGGGGSGGGGSVIQMTQSPSSLSASVGDRVTITCQASQDISNYLNWYQQKPGKAPKLLIYDASNLETGVPSRFSGSGSGTDFTFTISSLQPEDIATYYCQQYDNLPLTFGGGTKVEIK
notes: as for B1
Take B7: in assay [1], binding was characterised by a dissociation constant (Kd) of 11.9 nM, the koff was 0.00359 s⁻¹ and the on-rate (kon) came to 302000 M⁻¹ s⁻¹. The molecule further came in with a 50% effective concentration (EC50) in assay [2] of 2.32 nM. Moreover, in assay [3], it took 16.1 nM to reach a half-maximal effect (EC50).

B8: BC-09 (anti-BCMA antibody in scFv format) (scFv)
scFv: QVQLVQSGGGVVQPGGSLRLSCAASGFTFSSYGMHWVRQAPGKGLEWVAFIRYDGSNKYYADSVKGRFTISRDNSKNTLYLQMNSLRAEDTAVYYCAKDLWEFGGDYADYWGQGTLVTVSSGGGGSGGGGSGGGGSNIQMTQSPSSLSASVGDRVTITCQASQDISNYLNWYQQKPGKAPKLLIYDASNLETGVPSRFSGSGSGTDFTFTISSLQPEDIATYYCQQYDNLPLTFGGGTKVEIK
notes: as for B1
On to B8, for which, in assay [1], the dissociation constant Kd came out at 19.6 nM, the koff was found to be 0.00407 s⁻¹ and the kon is 208000 M⁻¹ s⁻¹. Moreover, the EC50 in assay [2] amounted to 0.597 nM. Besides, in assay [3], the 50% effective concentration (EC50) came to 5.28 nM.
